B1: scFv; the commonest letter at each place (parent)
chain 1: EVKLDETGGGLVQPGRPMKLSCVASGFTFSDYWMNWVRQSPEKGLEWVAQIRNKPYNYETYYSDSVKGRFTISRDDSKSSVYLQMNNLRVEDMGIYYCTGSYYGMDYWGQGTSVTVS
chain 2: DVVMTQTPLSLPVSLGDQASISCRSSQSLVHSNGNTYLRWYLQKPGQSPKVLIYKVSNRFSGVPDRFSGSGSGTDFTLKISRVEAEDLGVYFCSQSTHVPWTFGGGTKLEIK

Legend:
[1] = variants of: B1; assay: Kd (Tite-Seq); settings: with fluorescein; format: scFv 4-4-20, heavy + light
[2] = variants of: B1; assay: yeast surface expression (ratio to wild type); higher = more expressed; settings: format: scFv 4-4-20, heavy + light

Variant	Kd [1] [µM]	yeast surface expression [2]
chain 1 S30W N35I	≥ 10	0.743
chain 1 W36P V37Y	≥ 10	0.75
chain 1 G100P D106A	≥ 10	0.627
chain 1 S101C G109N	≥ 10	0.251
chain 1 G109F	≥ 10	0.305
chain 1 T28I D31H	0.00128	0.699
chain 1 F29T S30C	0.0391	0.804
chain 1 D31C V37K	≥ 10	0.453
chain 1 G100T M105C	≥ 10	0.754
chain 1 D31N V37H	0.47	0.626
chain 1 D31H	0.00179	0.763
chain 1 D31N	0.000825	1.1
chain 1 M34F W36M	0.0562	0.872
chain 1 Y102M Y103A Y107L	≥ 10	0.84
chain 1 D106W W108K	≥ 10	0.243
chain 1 S30V W33A	≥ 10	0.748
chain 1 S30Y W36A	≥ 10	0.404
chain 1 M105T G109L	≥ 10	0.188
chain 1 Y107G W108L G109E	≥ 10	0.331
chain 1 Y103T D106S	≥ 10	0.883
chain 1 D106Y G109K	≥ 10	0.136
chain 1 Y102F W108T	0.000479	0.854
chain 1 T28R Y32H	0.0259	1
chain 1 S101I G104K	≥ 10	0.482

Variant	Kd [1] [µM]	yeast surface expression [2]
chain 1 S101G D106A	0.0457	0.675
chain 1 N35A W36P	≥ 10	0.663
chain 1 Y32L W36Q	≥ 10	0.875
chain 1 D106A W108V	≥ 10	0.529
chain 1 D106A W108M	≥ 10	0.713
chain 1 T28Q V37F	0.021	1.1
chain 1 W36N	≥ 10	0.978
chain 1 G100D G109H	≥ 10	0.602
chain 1 T28R D31L W33I	≥ 10	0.441
chain 1 Y103P W108M	≥ 10	0.463
chain 1 D31R Y32A	0.0944	0.863
chain 1 D106W Y107G G109L	≥ 10	0.109
chain 1 M105L Y107V	1.72	1.08
chain 1 G100K D106V	≥ 10	0.171
chain 1 G100K D106C	≥ 10	0.0988
chain 1 Y103M W108Q	0.0896	0.547
chain 1 W108H G109C	≥ 10	0.362
chain 1 G100F D106K	≥ 10	0.653
chain 1 Y107L	1.91	1.01
chain 1 Y107P	≥ 10	0.414
chain 1 G104L Y107E	≥ 10	0.499
chain 1 Y102K Y103M	1.14	1.08
chain 1 Y102K Y103D	0.0132	1.24
chain 1 G100C S101A	0.00606	0.711

Variant	Kd [1] [µM]	yeast surface expression [2]
chain 1 G100Y S101P	≥ 10	0.251
chain 1 G100E G109Y	≥ 10	0.199
chain 1 S101W Y102Q W108A	≥ 10	0.239
chain 1 S30K W36E	≥ 10	1.31
chain 1 M105W Y107C	≥ 10	0.264
chain 1 M105W Y107P	≥ 10	0.452
chain 1 D106L W108R G109Y	≥ 10	0.0998
chain 1 M34C	0.00326	0.712
chain 1 M34K	0.694	0.913
chain 1 Y103N M105G Y107M	≥ 10	0.836
chain 1 S30M D31S	0.00265	0.671
chain 1 D106G W108E	≥ 10	0.575
chain 1 Y103H D106H	≥ 10	0.611
chain 1 M105C D106E	≥ 10	0.902
chain 1 G100S Y102K	0.0335	0.868
chain 1 G100I Y103H	≥ 10	0.94
chain 1 T28E Y32R	0.0318	0.928
chain 1 S101P	≥ 10	0.244
chain 1 S101M	≥ 10	0.591
chain 1 S101Q	≥ 10	0.788
chain 1 G100V Y107N G109P	≥ 10	0.341
chain 1 G104V W108A	≥ 10	0.141
chain 1 T28K N35M V37L	≥ 10	0.642
chain 1 T28P Y32C	0.00672	0.967

Variant	Kd [1] [µM]	yeast surface expression [2]
chain 1 S101A Y107S	0.00175	0.854
chain 1 S30W D31N	≤ 0.000316	0.866
chain 1 Y107V W108D	≥ 10	0.425
chain 1 Y102N W108D	≥ 10	0.259
chain 1 M105Q G109W	≥ 10	0.115
chain 1 Y102Q Y107C	≥ 10	0.353
chain 1 F29P W33G	≥ 10	0.951
chain 1 G100R	≥ 10	0.624
chain 1 G100P	≥ 10	0.758
chain 1 Y103E D106P	≥ 10	0.413
chain 1 G104P	≥ 10	0.859
chain 1 T28Y W36M	≥ 10	0.486
chain 1 G100S M105I	≥ 10	0.943
chain 1 F29Y S30A D31M	0.216	0.826
chain 1 F29N S30Q	0.876	1.02
chain 1 T28L W36A	≥ 10	0.508
chain 1 F29N V37G	≥ 10	0.135
chain 1 G104E W108G	≥ 10	0.296
chain 1 F29E	≥ 10	0.778
chain 1 F29L	0.0402	0.984
chain 1 F29P	0.0318	1.05
chain 1 S101A Y107E W108G	≥ 10	0.353
chain 1 F29A S30D M34K	≥ 10	0.41
chain 1 D31L V37K	9.5	0.686

Variant	Kd [1] [µM]	yeast surface expression [2]
chain 1 Y102H G109W	≥ 10	0.254
chain 1 F29I Y32G	≥ 10	1.08
chain 1 G100Q G109E	≥ 10	0.304
chain 1 D106W Y107L	≥ 10	0.308
chain 1 G100W Y107Q	≥ 10	0.323
chain 1 M105V W108C	6.61	0.461
chain 1 Y102S G109Y	≥ 10	0.248
chain 1 F29T Y32R	1.14	1.06
chain 1 W33E V37Y	≥ 10	1
chain 1 Y107S W108S	≥ 10	0.484
chain 1 S101Q D106N	≥ 10	0.555
chain 1 G100Y G109W	≥ 10	0.26
chain 1 T28W Y32W	≥ 10	0.65
chain 1 S30D M34F	0.00142	1.22
chain 1 T28A D31C N35A	≥ 10	0.411
chain 1 Y102K Y107I	0.0302	1
chain 1 N35Q	≥ 10	0.814
chain 1 N35A	≥ 10	0.902
chain 1 Y32L V37R	≥ 10	0.0981
chain 1 T28R W33L	≥ 10	0.935

Reference: the FLAb antibody collection (doi:10.7554/elife.23156)
